Source: patent US7977459 (TOUDAI TLO, dated 2011)
Several values for one entry are separate records, joined by “and”; a condition that tells them apart may be missing. Equal entries are not always repeated. Values belong to the binder of their own block, whether it stands above or below them.

Key:
[1] = biological target: T1, mouse AdipoR2 (mouse adiponectin receptor 2) (mouse, UniProt Q8BQS5 76-386); experiment: Scatchard analysis of [125I] Ad binding to C2C12 myocytes; intermediate affinity sites, tied to AdipoR2 because AdipoR2 siRNA abrogated them
T1 construct: also called mAdipoR2
T1 sequence: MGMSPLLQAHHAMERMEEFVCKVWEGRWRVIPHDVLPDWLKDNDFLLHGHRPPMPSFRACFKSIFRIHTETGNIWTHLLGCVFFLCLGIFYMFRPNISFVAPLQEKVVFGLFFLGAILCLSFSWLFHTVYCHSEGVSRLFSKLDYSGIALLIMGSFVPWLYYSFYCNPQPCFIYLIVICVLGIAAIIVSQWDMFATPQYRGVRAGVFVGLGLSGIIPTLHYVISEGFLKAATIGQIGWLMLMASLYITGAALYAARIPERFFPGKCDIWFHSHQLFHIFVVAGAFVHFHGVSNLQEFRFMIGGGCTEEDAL

[2] = biological target: T2, mouse AdipoR1 (mouse adiponectin receptor 1) (mouse, UniProt Q91VH1 1-375); experiment: Scatchard analysis of [125I] gAd binding to C2C12 myocytes; high affinity sites, tied to AdipoR1 because AdipoR1 siRNA abrogated them
T2 construct: also called mAdipoR1
T2 sequence: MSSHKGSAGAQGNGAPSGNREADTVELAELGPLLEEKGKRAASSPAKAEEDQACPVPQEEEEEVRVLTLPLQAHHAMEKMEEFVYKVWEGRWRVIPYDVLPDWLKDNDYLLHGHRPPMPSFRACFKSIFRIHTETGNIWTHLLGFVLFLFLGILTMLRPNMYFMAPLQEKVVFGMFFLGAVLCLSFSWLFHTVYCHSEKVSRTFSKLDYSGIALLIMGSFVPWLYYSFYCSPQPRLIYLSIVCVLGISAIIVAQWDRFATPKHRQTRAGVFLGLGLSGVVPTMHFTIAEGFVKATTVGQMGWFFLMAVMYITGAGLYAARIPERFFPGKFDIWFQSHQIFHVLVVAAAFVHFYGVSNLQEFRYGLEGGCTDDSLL

[3] = biological target: T1, mouse AdipoR2 (mouse adiponectin …); experiment: Scatchard analysis of [125I] gAd binding to C2C12 myocytes; intermediate affinity sites, tied to AdipoR2 because AdipoR2 siRNA abrogated them

Kd [1]: ~6.7 µg/mL and ~49.1 nM
B1: full-length adiponectin (full-length Adipo) (ligand, mouse, UniProt Q60994 18-247, looked up)
chain: EDDVTTTEELAPALVPPPKGTCAGWMAGIPGHPGHNGTPGRDGRDGTPGEKGEKGDAGLLGPKGETGDVGMTGAEGPRGFPGTPGRKGEPGEAAYVYRSAFSVGLETRVTVPNVPIRFTKIFYNQQNHYDGSTGKFYCNIPGLYYFSYHITVYMKDVKVSLFKKDKAVLFTYDQYQEKNVDQASGSVLLHLEVGDQVWLQVYGDGDHNGLYADNVNDSTFTGFLLYHDTN
modifications: 125I-labeled at Tyr in the radioligand binding assay
notes: also called [125I] full-length Adipo

Kd [2]: ~0.06 µg/mL and ~1.14 nM
Kd [3]: ~0.8 µg/mL and ~14.4 nM
B2: adiponectin consisting solely of the globular domain (globular Adipo) (ligand, mouse, UniProt Q60994 104-247, looked up)
chain: KGEPGEAAYVYRSAFSVGLETRVTVPNVPIRFTKIFYNQQNHYDGSTGKFYCNIPGLYYFSYHITVYMKDVKVSLFKKDKAVLFTYDQYQEKNVDQASGSVLLHLEVGDQVWLQVYGDGDHNGLYADNVNDSTFTGFLLYHDTN
modifications: 125I-labeled at Tyr in the radioligand binding assay; biotinylated with NHS-LC-Biotin or conjugated with FITC in the FACS experiments
notes: domain: globular domain; also called gAd; globular adiponectin
